Measurements as given in US20160177307.

What was measured:
Assay in all cases: filter
[1] = tested on: T1, VEGF-165 (Homo sapiens), P15692-4
T1 sequence: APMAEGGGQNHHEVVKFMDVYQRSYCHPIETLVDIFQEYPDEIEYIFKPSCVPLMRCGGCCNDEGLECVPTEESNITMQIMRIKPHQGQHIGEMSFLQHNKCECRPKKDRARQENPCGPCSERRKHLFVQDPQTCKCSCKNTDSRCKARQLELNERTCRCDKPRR

[2] = tested on: T2, VEGF-121 (Homo sapiens), P15692-9
T2 sequence: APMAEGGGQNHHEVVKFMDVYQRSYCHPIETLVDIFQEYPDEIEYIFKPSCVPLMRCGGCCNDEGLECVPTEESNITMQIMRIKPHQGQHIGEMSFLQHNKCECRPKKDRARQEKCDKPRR

[3] = tested on: T3, VEGF-164 (Rattus norvegicus), P16612-2; settings: P=Nap-dU
T3 sequence: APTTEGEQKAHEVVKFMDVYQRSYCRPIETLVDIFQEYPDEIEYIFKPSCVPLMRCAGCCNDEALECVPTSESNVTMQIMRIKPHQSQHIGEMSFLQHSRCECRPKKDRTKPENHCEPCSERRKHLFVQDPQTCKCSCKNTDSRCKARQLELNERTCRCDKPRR

[4] = target: PDGF-BB (platelet-derived growth factor BB) (Homo sapiens) (UniProt P01127)
[5] = target: PDGF-AB (UniProt P04085+P01127); settings: NapdU at P; C3 spacer 15,18; specificity control
[6] = Nap-dU, Bn-dU, MBn-dU, 2'-OMe, C3, 2 Heg between parts
[7] = Nap-dU, Bn-dU, MBn-dU, 2'-OMe, C3, 3 Heg between parts
[8] = Nap-dU, Bn-dU, MBn-dU, 2'-OMe, C3, 4 Heg between parts
[9] = Nap-dU, Bn-dU, MBn-dU, 2'-OMe, C3, 5 Heg between parts
[10] = Nap-dU, Bn-dU, MBn-dU, 2'-OMe, C3, 6 Heg between parts

PDGF-BB (platelet-derived growth factor BB) (Homo sapiens), sequence (P01127 82-190): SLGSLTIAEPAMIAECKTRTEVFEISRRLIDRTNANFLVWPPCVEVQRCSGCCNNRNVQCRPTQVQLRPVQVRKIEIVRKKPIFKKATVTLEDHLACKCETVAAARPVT
PDGF-AB, sequence (P01127 82-190, chain 2 of 2, other chains not shown): as the sequence (P01127 82-190) above

Question: For “AATCAGCCGTTCAAGTGCTTGTAGGATTTAAATGGA [4867-31_39]”, which Kd ([1]; P=Nap-dU) is on record?
Answer: 0.2 nM

Question: What about the Kd ([2]; P=Nap-dU) of the same sequence?
Answer: 0.62 nM

Question: And the Kd [3]?
Answer: 0.09 nM

Question: Which Kd ([1]; P=Nap-dU) does the source give for “AATCAGCCGTTCAAGTGCTTGTAGGATTTAAATGGAA [4867-31_33]” here?
Answer: 0.11 nM

Question: And the Kd ([2]; P=Nap-dU)?
Answer: 0.55 nM

Question: What about the Kd [3] of the same sequence?
Answer: 0.04 nM

Question: How did the Kd ([1]; P=Nap-dU) turn out when “AATCAGCCGTTCAAGTGCTTGTAGGATTTAAATGGAAT [4867-31_27]” was run?
Answer: 0.11 nM

Question: What about the Kd ([2]; P=Nap-dU) of the same sequence?
Answer: 0.59 nM

Question: And the Kd [3]?
Answer: 0.07 nM

Question: How did the Kd ([1]; NapdU at P) turn out when “AGCCGTTCAAGTGCTTGTAGGATTTAAATG [4867-31_52]” was run?
Answer: 0.17 nM

Question: What about the Kd ([2]; NapdU at P) of the same sequence?
Answer: 2.8 nM

Question: And the Kd [3]?
Answer: 0.58 nM

Question: How did the Kd ([1]; P=Nap-dU) turn out when “AGCCGTTCAAGTGCTTGTAGGATTTAAATGGAA [4867-31_37]” was run?
Answer: 0.092 nM

Question: And the Kd ([2]; P=Nap-dU)?
Answer: 0.21 nM

Question: And the Kd [3]?
Answer: 0.04 nM

Question: With “AGCCGTTCAAGTGCTTGTAGGATTTAAATGGAAT [4867-31_31]” as the sequence, how does the Kd ([1]; P=Nap-dU) read?
Answer: 0.17 nM

Question: What about the Kd ([2]; P=Nap-dU) of the same sequence?
Answer: 1 nM

Question: And the Kd [3]?
Answer: 0.12 nM

Question: Which Kd ([1]; P=Nap-dU) does the source give for “ATCAGCCGTTCAAGTGCTTGTAGGATTTAAATGGA [4867-31_40]” here?
Answer: 0.14 nM

Question: What about the Kd ([2]; P=Nap-dU) of the same sequence?
Answer: 0.7 nM

Question: What about the Kd [3] of the same sequence?
Answer: 0.1 nM

Question: How did the Kd ([1]; P=Nap-dU) turn out when “ATCAGCCGTTCAAGTGCTTGTAGGATTTAAATGGAA [4867-31_34]” was run?
Answer: 0.35 nM

Question: What about the Kd ([2]; P=Nap-dU) of the same sequence?
Answer: 0.47 nM

Question: And the Kd [3]?
Answer: 0.05 nM

Question: For “ATCAGCCGTTCAAGTGCTTGTAGGATTTAAATGGAAT [4867-31_28]”, which Kd ([1]; P=Nap-dU) is on record?
Answer: 0.1 nM

Question: What about the Kd ([2]; P=Nap-dU) of the same sequence?
Answer: 0.97 nM

Question: What about the Kd [3] of the same sequence?
Answer: 0.07 nM

Question: Which results are given for “CAATCAGCCGTTCAAGTGCTTGTAGGATTTAAATGGA [4867-31_38]”?
Answer: Kd ([1]; P=Nap-dU): 0.17 nM; Kd ([2]; P=Nap-dU): 0.81 nM; Kd [3]: 0.09 nM

Question: How did the Kd ([1]; P=Nap-dU) turn out when “CAATCAGCCGTTCAAGTGCTTGTAGGATTTAAATGGAA [4867-31_32]” was run?
Answer: 0.1 nM

Question: And the Kd ([2]; P=Nap-dU)?
Answer: 0.51 nM

Question: And the Kd [3]?
Answer: 0.06 nM

Question: “CAATCAGCCGTTCAAGTGCTTGTAGGATTTAAATGGAAT [4867-31_26]” was tested. Which Kd ([1]; P=Nap-dU, SB18T, 37 C) did it give?
Answer: 0.075 nM

Question: And the Kd ([2]; P=Nap-dU)?
Answer: 0.49 nM

Question: And the Kd [3]?
Answer: 0.07 nM

Question: Which Kd [3] does the source give for “CAGCCGTTCAAGTGCTTGTAGGATTTAA [4867-31_48]” here?
Answer: 142 nM

Question: How did the Kd ([1]; NapdU at P) turn out when “CAGCCGTTCAAGTGCTTGTAGGATTTAAATG [4867-31_45]” was run?
Answer: 1.1 nM

Question: What about the Kd ([2]; NapdU at P) of the same sequence?
Answer: 3.3 nM

Question: What about the Kd [3] of the same sequence?
Answer: 4.5 nM

Question: What does the source list for “CAGCCGTTCAAGTGCTTGTAGGATTTAAATGG [4867-31_44]”?
Answer: Kd ([1]; NapdU at P): 0.13 nM; Kd ([2]; NapdU at P): 0.14 nM; Kd [3]: 0.38 nM

Question: For “CAGCCGTTCAAGTGCTTGTAGGATTTAAATGGAA [4867-31_36]”, which Kd ([1]; P=Nap-dU) is on record?
Answer: 0.11 nM

Question: What about the Kd ([2]; P=Nap-dU) of the same sequence?
Answer: 0.39 nM

Question: And the Kd [3]?
Answer: 0.06 nM

Question: Which Kd ([1]; P=Nap-dU) does the source give for “CAGCCGTTCAAGTGCTTGTAGGATTTAAATGGAAT [4867-31_30]” here?
Answer: 0.2 nM

Question: And the Kd ([2]; P=Nap-dU)?
Answer: 1.4 nM

Question: What about the Kd [3] of the same sequence?
Answer: 0.15 nM

Question: “CCGTTCAAGTGCTTGTAGGATTTAAATGGA [4867-31_59]” was tested. Which Kd ([1]; NapdU at P) did it give?
Answer: 0.16 nM

Question: What about the Kd ([2]; NapdU at P) of the same sequence?
Answer: 0.14 nM

Question: What about the Kd [3] of the same sequence?
Answer: 0.2 nM

Question: How did the Kd [1, 6] turn out when “CCGTTCAAGTGCTTGTAGGATTTAAATGGTTACGTTACCGCGTTTATAGCG [4149-8_409]” was run?
Answer: 0.029 nM

Question: And the Kd [2, 6]?
Answer: 0.026 nM

Question: What about the Kd [4, 6] of the same sequence?
Answer: 0.6 nM

Question: Which results are given for “CCGTTCAAGTGCTTGTAGGATTTAAATGGTTACGTTACCGCGTTTATAGCG [4149-8_410]”?
Answer: Kd [1, 7]: 0.033 nM; Kd [2, 7]: 0.026 nM; Kd [4, 7]: 0.02 nM

Question: How did the Kd [1, 8] turn out when “CCGTTCAAGTGCTTGTAGGATTTAAATGGTTACGTTACCGCGTTTATAGCG [4149-8_411]” was run?
Answer: 0.045 nM

Question: What about the Kd [2, 8] of the same sequence?
Answer: 0.02 nM

Question: What about the Kd [4, 8] of the same sequence?
Answer: 0.0072 nM

Question: “CCGTTCAAGTGCTTGTAGGATTTAAATGGTTACGTTACCGCGTTTATAGCG [4149-8_412]” was tested. Which Kd [1, 9] did it give?
Answer: 0.045 nM

Question: And the Kd [2, 9]?
Answer: 0.02 nM

Question: And the Kd [4, 9]?
Answer: 0.0086 nM

Question: Which results are given for “CCGTTCAAGTGCTTGTAGGATTTAAATGGTTACGTTACCGCGTTTATAGCG [4149-8_413]”?
Answer: Kd [1, 10]: 0.063 nM; Kd [2, 10]: 0.04 nM; Kd [4, 10]: 0.01 nM

Question: For “CCGTTCAAGTGCTTTAGATTTAAATGG [4867-31_183]”, which Kd ([1]; Nap-dU, C3 spacer at 15 and 18, VEGF) is on record?
Answer: 0.138 nM

Question: What about the Kd ([2]; NapdU at P, C3 spacer 15,18) of the same sequence?
Answer: 0.091 nM

Question: And the Kd ([4]; NapdU at P, C3 spacer 15,18, specificity control)?
Answer: 195 nM

Question: What about the Kd [5] of the same sequence?
Answer: 14.5 nM
